Molecular target: FLAG-Mfn2 (UniProt O95140)
Test: co-IP

Chain of UniProt O95140 (O95140 whole entry): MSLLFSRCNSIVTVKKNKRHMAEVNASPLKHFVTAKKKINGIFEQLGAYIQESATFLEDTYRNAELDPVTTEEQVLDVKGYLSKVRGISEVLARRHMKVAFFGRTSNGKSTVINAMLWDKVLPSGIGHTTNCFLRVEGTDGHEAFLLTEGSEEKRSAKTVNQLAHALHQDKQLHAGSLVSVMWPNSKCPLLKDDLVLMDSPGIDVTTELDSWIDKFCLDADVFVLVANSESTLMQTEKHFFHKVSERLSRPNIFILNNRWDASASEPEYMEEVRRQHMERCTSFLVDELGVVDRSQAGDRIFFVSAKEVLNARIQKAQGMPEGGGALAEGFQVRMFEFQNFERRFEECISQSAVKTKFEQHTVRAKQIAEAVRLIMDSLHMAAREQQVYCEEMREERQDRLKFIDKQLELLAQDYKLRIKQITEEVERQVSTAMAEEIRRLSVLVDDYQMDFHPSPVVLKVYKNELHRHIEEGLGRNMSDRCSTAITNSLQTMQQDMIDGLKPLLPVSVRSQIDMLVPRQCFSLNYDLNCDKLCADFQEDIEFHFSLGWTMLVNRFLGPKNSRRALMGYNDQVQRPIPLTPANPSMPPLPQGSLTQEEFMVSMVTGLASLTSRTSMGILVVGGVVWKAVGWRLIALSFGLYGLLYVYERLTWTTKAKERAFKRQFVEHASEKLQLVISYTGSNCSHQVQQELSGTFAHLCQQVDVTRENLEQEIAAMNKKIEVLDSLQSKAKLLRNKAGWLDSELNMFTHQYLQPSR

Substance GFP-Bcl-xL/Bax H5 has a percent of GFP-Bcl-xL/Bax H5 bound to FLAG-Mfn2 of 3%.

From paper PMC2970747
